Assay results reported in the supplement of paper PMC11865577.

What follows are sequences tested on TO-N3 (biotin conjugate) (assay: pull-down binding Z-score (relative to library population); higher = stronger binding). Conditions: RNA library: Library-2.
Summary of the method: (§1)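 Streptavidin beads with 100 pmol of biotin-conjugated small molecule were incubated for 60 min at 25 °C with 1 μg of heat-folded Cy5- or Cy3-end-labelled RNA library in phosphate/NaCl/KCl buffer. Bound RNA was eluted in hot SDS after three washes and hybridised to a DNA barcode microarray at 55.5 °C for 20 h. Each binding score is a library-referenced Z-score, computed after beads-only subtraction and a trimmed mean of barcoded replicate probes.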

Sequence	pull-down binding Z-score
CAACUGAAAUCUAUCAGGCCGGUAGCACACCUUGUAAUGGUGUUGAAGGUUUUAAUUG [SHAPE_invivo_SARS-CoV-2_Motif_433]	-0.566
CAACUUACAAAUUAAAUGUUG	-0.698
CAAGAGAAGUGGGUUUUGUCGUGCCUGGUUUGCCUGGCACGAUAUUACGCACAACUAAUG	-0.438
CAAGGACCUGCCUAAAGAAAUCACUGUUGCUACAUCACGAACGCUUUCUUAUUACAAAUUGGGAGCUUCGCAGCGUGUAGCAGGUGACUCAGGUUUUG [DMSMaPseq_invitro_SARS-CoV-2_Motif_486]	-0.158
CAAGGCUAUUGAUGGUGGUGUCACUCGUGACAUAGCAUCUACAGAUACUUG [SHAPE_invivo_SARS-CoV-2_Motif_176]	-0.424
CAAGGGUACACACCACUG	0.81
CAAUACAUAAGAAAGCUACAUGAUGAGUUAACAGGACACAUGUUAGACAUGUAUUCUGUUAUGCUUACUAAUGAUAACACUUCAAGGUAUUG	-0.411
CAAUGUGUGAUAUCAGACAACUACUAUUUGUAGUUGAAGUUGUUGAUAAGUACUUUG [DMSMaPseq_invitro_SARS-CoV-2_Motif_268]	0.105
CACAAGGCAGAUGGGCUAUAUAAACGUUUUCGCUUUUCCGUUUACGAUAUAUAGUCUACUCUUGUG	-0.787
CACAGAAAAGUACUGUG [SHAPE_invivo_SARS-CoV-2_Motif_52]	0.891
CACAUCAGUAGUCUUACUCUCAGUUUUGCAACAACUCAGAGUAGAAUCAUCAUCUAAAUUGUG [DMSMaPseq_invitro_SARS-CoV-2_Motif_209]	-0.843
CACAUCUAGGUUUCGUCCGGGUGUG [SARS-CoV-2-Conserved-Structured-16_Interval-158-277_Motif_2]	0.254
CACAUGAAGGUAAAACAUUUUAUGUUUUACCUAAUGAUG	-0.73
CACCAAGACUACUUACUGGUG [IAV_invivo_PB1_2_Motif_22+IAV_invivo_PB1_2_Motif_22]	-0.706
CACCACUUAACCGAAAUUAUGUCUUUACUGGUUAUCGUGUAACUAAAAACAGUAAAGUACAAAUAGGAGAGUACACCUUUGAAAAAGGUGACUAUGGUG	-0.623
CACCAUCUGGUG [DMSMaPseq_invitro_SARS-CoV-2_Motif_188]	0.0701
CACCCGCGAAGAAGCUAUAAGACAUGUACGUGCAUGGAUUGGCUUCGAUGUCGAGGGGUG	0.845
CACGUCCAACUCAGUUUGCCUGUUUUACAGGUUCGCGACGUG	0.0672
CACUAAAAAGUGGAAAUACCCACAAGUUAAUG	-0.552
CACUCAAAGGCGGUGCACCAACAAAGGUUACUUUUGGUGAUGACACUGUGAUAGAAGUG [DMSMaPseq_invitro_SARS-CoV-2_Motif_50]	-0.234
CACUGUACAGUCUAAAAUGUCAGAUGUAAAGUG [DMSMaPseq_invitro_SARS-CoV-2_Motif_208]	-0.414
CACUUAUCUUAGCCUACUGUAAUAAGACAGUAGGUGAGUUAGGUG	-1.2
CACUUCUUUCUUUGAGAGAAGUG	-0.669
CAGACAACACAUUUGUGUCUG	-1.45
CAGACUUUAUGAGUGUCUCUAUAGAAAUAGAGAUGUUGACACAGACUUUGUGAAUGAGUUUUACGCAUAUUUGCGUAAACAUUUCUCAAUGAUGAUACUCUCUG	-1.21
CAGACUUUGUGAAUGAGUUUUACGCAUAUUUGCGUAAACAUUUCUCAAUGAUGAUACUCUCUG	-0.747

These sequences were tested on TO-3-N3 (biotin conjugate) in the same assay as above. Conditions: RNA library: Library-2.
Summary of the method: as §1

Sequence	pull-down binding Z-score
CAACUGAAAUCUAUCAGGCCGGUAGCACACCUUGUAAUGGUGUUGAAGGUUUUAAUUG [SHAPE_invivo_SARS-CoV-2_Motif_433]	-0.552
CAACUUACAAAUUAAAUGUUG	-0.448
CAAGAGAAGUGGGUUUUGUCGUGCCUGGUUUGCCUGGCACGAUAUUACGCACAACUAAUG	-0.455
CAAGGACCUGCCUAAAGAAAUCACUGUUGCUACAUCACGAACGCUUUCUUAUUACAAAUUGGGAGCUUCGCAGCGUGUAGCAGGUGACUCAGGUUUUG [DMSMaPseq_invitro_SARS-CoV-2_Motif_486]	-0.688
CAAGGCUAUUGAUGGUGGUGUCACUCGUGACAUAGCAUCUACAGAUACUUG [SHAPE_invivo_SARS-CoV-2_Motif_176]	-0.614
CAAGGGUACACACCACUG	0.824
CAAUACAUAAGAAAGCUACAUGAUGAGUUAACAGGACACAUGUUAGACAUGUAUUCUGUUAUGCUUACUAAUGAUAACACUUCAAGGUAUUG	-0.424
CAAUGUGUGAUAUCAGACAACUACUAUUUGUAGUUGAAGUUGUUGAUAAGUACUUUG [DMSMaPseq_invitro_SARS-CoV-2_Motif_268]	-0.462
CACAAGGCAGAUGGGCUAUAUAAACGUUUUCGCUUUUCCGUUUACGAUAUAUAGUCUACUCUUGUG	-0.81
CACAGAAAAGUACUGUG [SHAPE_invivo_SARS-CoV-2_Motif_52]	1.15
CACAUCAGUAGUCUUACUCUCAGUUUUGCAACAACUCAGAGUAGAAUCAUCAUCUAAAUUGUG [DMSMaPseq_invitro_SARS-CoV-2_Motif_209]	-0.736
CACAUCUAGGUUUCGUCCGGGUGUG [SARS-CoV-2-Conserved-Structured-16_Interval-158-277_Motif_2]	0.468
CACAUGAAGGUAAAACAUUUUAUGUUUUACCUAAUGAUG	-0.659
CACCAAGACUACUUACUGGUG [IAV_invivo_PB1_2_Motif_22+IAV_invivo_PB1_2_Motif_22]	-0.338
CACCACUUAACCGAAAUUAUGUCUUUACUGGUUAUCGUGUAACUAAAAACAGUAAAGUACAAAUAGGAGAGUACACCUUUGAAAAAGGUGACUAUGGUG	-0.803
CACCAUCUGGUG [DMSMaPseq_invitro_SARS-CoV-2_Motif_188]	0.319
CACCCGCGAAGAAGCUAUAAGACAUGUACGUGCAUGGAUUGGCUUCGAUGUCGAGGGGUG	0.929
CACGUCCAACUCAGUUUGCCUGUUUUACAGGUUCGCGACGUG	0.0988
CACUAAAAAGUGGAAAUACCCACAAGUUAAUG	-0.634
CACUCAAAGGCGGUGCACCAACAAAGGUUACUUUUGGUGAUGACACUGUGAUAGAAGUG [DMSMaPseq_invitro_SARS-CoV-2_Motif_50]	-0.531
CACUGUACAGUCUAAAAUGUCAGAUGUAAAGUG [DMSMaPseq_invitro_SARS-CoV-2_Motif_208]	-0.25
CACUUAUCUUAGCCUACUGUAAUAAGACAGUAGGUGAGUUAGGUG	-0.861
CACUUCUUUCUUUGAGAGAAGUG	-0.323
CAGACAACACAUUUGUGUCUG	-1.07
CAGACUUUAUGAGUGUCUCUAUAGAAAUAGAGAUGUUGACACAGACUUUGUGAAUGAGUUUUACGCAUAUUUGCGUAAACAUUUCUCAAUGAUGAUACUCUCUG	-0.919
CAGACUUUGUGAAUGAGUUUUACGCAUAUUUGCGUAAACAUUUCUCAAUGAUGAUACUCUCUG	-0.682
